Measured values taken from article PMC10998593.

Target: GST-NSUN5 (UniProt Q96P11 1-429)
Experiment: EMSA

GST-NSUN5, sequence (Q96P11 whole entry): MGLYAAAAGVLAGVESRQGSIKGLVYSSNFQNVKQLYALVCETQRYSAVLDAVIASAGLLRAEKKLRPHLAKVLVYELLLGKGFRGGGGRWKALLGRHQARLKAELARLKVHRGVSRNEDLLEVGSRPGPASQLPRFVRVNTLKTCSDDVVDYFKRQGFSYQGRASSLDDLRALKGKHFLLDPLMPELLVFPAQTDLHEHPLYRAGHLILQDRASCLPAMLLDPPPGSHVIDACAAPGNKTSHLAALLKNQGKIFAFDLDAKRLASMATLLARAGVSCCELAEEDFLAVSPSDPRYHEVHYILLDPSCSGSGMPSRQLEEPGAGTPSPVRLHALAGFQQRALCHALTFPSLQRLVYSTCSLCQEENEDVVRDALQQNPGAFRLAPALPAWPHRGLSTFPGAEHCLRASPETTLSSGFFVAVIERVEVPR

GUCCUUCGGGCUGGUGACAGGG (ssRNA) [Probe1 (Oligo 1), CTNNB1]: binds.
